The values below come from publication PMC5785730, “Assays of D-Amino Acid Oxidase Activity” (Frontiers in Molecular Biosciences, 2018).

Holding throughout (conditions): FAD
Substrate in data set [1]: N[C@H](CCC(=O)O)C(=O)O
The experiment in a line: purified protein.

Substrate in data set [2]: C[C@@H](N)C(=O)O
The data set is described as follows: purified protein.

Substrate in data set [3]: NCCCC[C@@H](N)C(=O)O
The experiment in a line: steady-state kinetics, oxygen consumption assay (Km). It is filed as biochemical, Rhodotorula toruloides.

B1: RgDAAO (D-amino acid oxidase from Rhodotorula gracilis) (Rhodotorula toruloides) (protein)
chain: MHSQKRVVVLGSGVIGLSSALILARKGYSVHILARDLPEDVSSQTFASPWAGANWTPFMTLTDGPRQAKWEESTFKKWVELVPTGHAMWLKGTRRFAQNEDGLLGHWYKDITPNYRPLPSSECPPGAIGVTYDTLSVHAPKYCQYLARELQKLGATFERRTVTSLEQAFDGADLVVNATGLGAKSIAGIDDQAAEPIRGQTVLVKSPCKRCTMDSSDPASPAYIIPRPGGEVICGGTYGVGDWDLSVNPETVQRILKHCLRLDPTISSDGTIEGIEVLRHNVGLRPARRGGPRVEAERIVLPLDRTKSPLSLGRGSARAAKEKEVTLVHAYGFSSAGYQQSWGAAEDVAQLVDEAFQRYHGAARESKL
notes: recombinant wild-type RgDAAO
For B1, the Km in data set [1] is 76.4 ± 6.4 mM; in data set [2] it was 1.3 ± 0.2 mM; in data set [3], 14.6 ± 1.4 mM. The Vmax was determined as 1.7 µmol/min/mg in data set [1], 100 µmol/min/mg in data set [2] and 16.4 µmol/min/mg in data set [3].
